Positions count from the first letter of the chain named. Read-outs that look alike come from different tables or passages of the source.
T1: COP1^349–675,Lys422Ala WD40 domain (Arabidopsis, UniProt P43254 349-675, Lys422Ala)
T1 sequence: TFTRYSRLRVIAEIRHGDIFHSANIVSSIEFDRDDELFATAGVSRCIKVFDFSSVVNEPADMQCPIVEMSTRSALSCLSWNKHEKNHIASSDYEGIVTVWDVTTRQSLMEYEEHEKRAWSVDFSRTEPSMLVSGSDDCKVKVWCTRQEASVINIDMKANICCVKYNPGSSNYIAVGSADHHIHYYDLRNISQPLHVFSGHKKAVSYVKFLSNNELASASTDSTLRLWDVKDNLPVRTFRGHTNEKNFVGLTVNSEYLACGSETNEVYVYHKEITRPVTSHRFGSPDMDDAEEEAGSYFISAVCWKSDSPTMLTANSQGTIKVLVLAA

T2: COP1^Tyr441Ala WD40 domain (Arabidopsis, UniProt P43254 349-675, Tyr441Ala)
T2 sequence: T1 sequence with A74K, Y93A

T3: UVR8^ValPro/AlaAla (recombinant) (Arabidopsis, UniProt Q9FN03 1-440, ValPro/AlaAla)
T3 sequence: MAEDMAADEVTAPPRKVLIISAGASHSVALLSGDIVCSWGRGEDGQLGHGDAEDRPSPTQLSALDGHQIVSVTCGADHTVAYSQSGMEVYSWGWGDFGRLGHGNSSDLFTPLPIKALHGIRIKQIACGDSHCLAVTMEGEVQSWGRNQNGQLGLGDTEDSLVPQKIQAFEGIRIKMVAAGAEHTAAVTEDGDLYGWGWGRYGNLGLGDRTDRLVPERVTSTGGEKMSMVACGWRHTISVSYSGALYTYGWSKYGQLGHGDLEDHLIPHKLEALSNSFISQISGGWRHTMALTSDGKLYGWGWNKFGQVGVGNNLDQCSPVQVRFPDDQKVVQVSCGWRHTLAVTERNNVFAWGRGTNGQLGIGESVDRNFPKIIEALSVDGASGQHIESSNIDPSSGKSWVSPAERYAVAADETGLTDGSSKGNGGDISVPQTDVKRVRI

B1: UVR8^HY5VP chimera (recombinant) (other)
chain: T3 sequence with R406E, Y407I, A408R, V409R, A410V, A411P, D412E, E413F
B2: UVR8^TRIB1VP chimera (recombinant) (other)
chain: MAEDMAADEVTAPPRKVLIISAGASHSVALLSGDIVCSWGRGEDGQLGHGDAEDRPSPTQLSALDGHQIVSVTCGADHTVAYSQSGMEVYSWGWGDFGRLGHGNSSDLFTPLPIKALHGIRIKQIACGDSHCLAVTMEGEVQSWGRNQNGQLGLGDTEDSLVPQKIQAFEGIRIKMVAAGAEHTAAVTEDGDLYGWGWGRYGNLGLGDRTDRLVPERVTSTGGEKMSMVACGWRHTISVSYSGALYTYGWSKYGQLGHGDLEDHLIPHKLEALSNSFISQISGGWRHTMALTSDGKLYGWGWNKFGQVGVGNNLDQCSPVQVRFPDDQKVVQVSCGWRHTLAVTERNNVFAWGRGTNGQLGIGESVDRNFPKIIEALSVDGASGQHIESSNIDPSSGKSWVSPAESDQIVPEY
B3: full‐length HY5 protein (recombinant) (natural protein)
chain: MQEQATSSLAASSLPSSSERSSSSAPHLEIKEGIESDEEIRRVPEFGGEAVGKETSGRESGSATGQERTQATVGESQRKRGRTPAEKENKRLKRLLRNRVSAQQARERKKAYLSELENRVKDLENKNSELEERLSTLQNENQMLRHILKNTTGNKRGGGGGSNADASL
B4: Arabidopsis COP1^349–675 WD40 domain (domain or fragment)
chain: T1 sequence with A74K

Columns and labels:
[1] = target: T1, COP1^349–675,Lys422Ala WD40 domain; test: ITC
[2] = target: B4; test: ITC
[3] = target: B4
[4] = target: B4
[5] = target: T1, COP1^349–675,Lys422Ala WD40 domain; test: ITC; remark: listed apart in the source
[6] = target: T2, COP1^Tyr441Ala WD40 domain; test: ITC
[7] = target: B4; test: ITC
[8] = target: B4
[9] = target: B4
[10] = target: UVR8^HY5C44 chimera (recombinant) (Arabidopsis, UniProt Q9FN03); test: UV-B-activated chimera
[11] = target: T3, UVR8^ValPro/AlaAla (recombinant)
[12] = target: B4; test: ITC

Binder: NDQQVPSAV [CRY2^527–535 VP peptide]
- Kd [1]: 560 µM
- Kd [2]: 21 µM

Binder: B1
- Kd [3]: 0.069 µM
- koff [4]: 0.0532 s⁻¹

Binder: EIRRVPEFGG [HY5^39–48 VP peptide]
- Kd [5]: 23 µM
- Kd [6]: 230 µM
- Kd [7]: 23 µM

Binder: GYGIVPSF [CO^366–373 VP peptide]
- Kd [1]: 21 µM
- Kd [2]: 74 µM

Binder: GFGVVPSF [COL3^287–294 VP peptide]
- Kd [1]: 7.8 µM
- Kd [2]: 39 µM

Binder: RYAVVPDE [UVR8^406–413 VP peptide]
- Kd [5]: 16 µM
- Kd [7]: 190 µM

Binder: B2
- Kd [3]: 0.093 µM
- koff [4]: 0.0319 s⁻¹

Binder: B3
- koff [8]: 0.0832 s⁻¹
- Kd [9]: 1.2 µM

Binder: B4
- Kd [10]: 0.269 µM
- Kd [11]: 2.2 µM

Binder: EDQMVPSIT [CRY1^544–552 VP peptide]
- Kd [1]: 76 µM
- Kd [2]: 3 µM

Binder: SDQIVPEY [TRIB1 VP peptide]
- Kd [12]: 1.6 µM
